Biological target: the molecule itself
Test: cryo-EM structure

B1: human asparagine synthetase (ASNS) (enzyme)
chain: CGIWALFGSDDCLSVQCLSAMKIAHRGPDAFRFENVNGYTNCCFGFHRLAVVDPLFGMQPIRVKKYPYLWLCYNGEIYNHKKMQQHFEFEYQTKVDGEIILHLYDKGGIEQTICMLDGVFAFVLLDTANKKVFLGRDTYGVRPLFKAMTEDGFLAVCSEAKGLVTLKHSATPFLKVEPFLPGHYEVLDLKPNGKVASVEMVKYHHCRDVPLHALYDNVEKLFPGFEIETVKNNLRILFNNAVKKRLMTDRRIGCLLSGGLDSSLVAATLLKQLKEAQVQYPLQTFAIGMEDSPDLLAARKVADHIGSEHYEVLFNSEEGIQALDEVIFSLETYDITTVRASVGMYLISKYIRKNTDSVVIFSGEGSDELTQGYIYFHKAPSPEKAEEESERLLRELYLFDVLRADRTTAAHGLELRVPFLDHRFSSYYLSLPPEMRIPKNGIEKHLLRETFEDSNLIPKEILWRPKEAFSDGITSVKNSWFKILQEYVEHQVDDAMMANAAQKFPFNTPKTKEGYYYRQVFERHYPGRADWLSHYWMPKWINATDPSARTLTHYKSAVKA
stoichiometry N: 2

— paper doi:10.1101/2025.10.16.682859 (bioRxiv, 2025)
